Data on 34 variants can be found in the supplement of paper PMC6755084.

B1: F1*; the commonest letter at each place (parent)
chain: GAGACCGCAACTGAAAAGTTGTTATCACTTGTCGTAAGACACTTTGGATGGGTTGAAGTTCTGCACGTAGAAGCAAAAGGC

Variants of B1 are the subject of the series. Briefly: fraction ligated after 30 min (ligated reads / total reads); higher = more ligase activity. The following applies: with F1*sub RNA substrate (template-directed ligation), 42 °C. An outline of the steps:
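Oligo-pool templates of ligase ribozyme variants were PCR-amplified, T7-transcribed and gel-purified. Ligated and unligated bands were gel-separated, reverse transcribed with barcoded primers, and MiSeq-sequenced; core bases were filtered at quality ≥20. Fraction ligated per variant was ligated reads over total reads.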
For the variant GAGACCGCAACTGAAAAGTTGTTATCACTTGTCGCAAGACTCTTTGGATGGGTTGAAGTTCTGCACGTAGAAGCAAAAGGC, the fraction ligated came out at 0.819.
Take GAGACCGCAACTGAAAAGTTGTTATCAGTTGTCGTAAGACAATTTGGATGGGTTGAAGTTCTGCACGTAGAAGCAAAAGGC: the fraction ligated was found to be 0.824.
To GAGACCGCAACTGAAAAGTTGTTATCACTTGTCGCAAGCCACTTTGGATGGGTTGAAGTTCTGCACGTAGAAGCAAAAGGC belongs 0.824.
In the case of GAGACCGCAACTGAAAAGTTGTTATCACTTGTCGTAAGAGACTTTGGCTGGGTTGAAGTTCTGCACGTAGAAGCAAAAGGC, the fraction ligated stood at 0.768.
In the case of GAGACCGCAACTGAAAAGTTGTTATCACCTGTCGTAAGACAATTTGGATGGGTTGAAGTTCTGCACGTAGAAGCAAAAGGC, the fraction ligated is 0.85.
In the case of GAGACCGCAACTGAAAAGTTGTTATCACTTGTCGTAAGACACTTTGGCTAGGTTGAAGTTCTGCACGTAGAAGCAAAAGGC, the fraction ligated stood at 0.148.
GAGACCGCAACTGAAAAGTTGTTATCACTGGTCGTAAGACACTTTGGATGGGTTCAAGTTCTGCACGTAGAAGCAAAAGGC: the fraction ligated was 0.793.
In the case of GAGACCGCAACTGAAAAGTTGTGATCACTTGTCGTAAGTCACTTTGGATGGGTTGAAGTTCTGCACGTAGAAGCAAAAGGC, the fraction ligated came to 0.79.
As for GAGACCGCAACTGAAAAGTTGTTCTCACTTGTCGTAAGACACTTGGGATGGGTTGAAGTTCTGCACGTAGAAGCAAAAGGC, the fraction ligated is 0.0118.
Take GAGACCGCAACTGAAAAGTTGTTGTCACTTGTCGCAAGACACTTTGGATGGGTTGAAGTTCTGCACGTAGAAGCAAAAGGC: the fraction ligated worked out at 0.776.
To GAGACCGCAACTGAAAAGTTGTTATTACTTGTCGTAAGACACTTTGGATCGGTTGAAGTTCTGCACGTAGAAGCAAAAGGC belongs 0.0206; to GAGACCGCAACTGAAAAGTTGTTATCACTTGTCGTAAGTCACTTTGGAAGGGTTGAAGTTCTGCACGTAGAAGCAAAAGGC, 0.717; to GAGACCGCAACTGAAAAGTTGTTATCACTTGTCGTAAGACGCCTTGGATGGGTTGAAGTTCTGCACGTAGAAGCAAAAGGC, 0.744.
To GAGACCGCAACTGAAAAGTTGTTATCACTTGTCGTAAGACATTTTGGATGGGTTTAAGTTCTGCACGTAGAAGCAAAAGGC belongs 0.848.
As for GAGACCGCAACTGAAAAGTTGTTACCACTTGTCGTAAGACACTTTGGACGGGTTGAAGTTCTGCACGTAGAAGCAAAAGGC, the fraction ligated was 0.757.
GAGACCGCAACTGAAAAGTTGTGATCACTTGTCGTAAGACTCTTTGGATGGGTTGAAGTTCTGCACGTAGAAGCAAAAGGC: the fraction ligated is 0.792.
Turning to GAGACCGCAACTGAAAAGTTGTTATCAATTGTCGTAAGACACTATGGATGGGTTGAAGTTCTGCACGTAGAAGCAAAAGGC, the fraction ligated worked out at 0.834.
For the variant GAGACCGCAACTGAAAAGTTGTTTTCACTTGTCCTAAGACACTTTGGATGGGTTGAAGTTCTGCACGTAGAAGCAAAAGGC, the fraction ligated stood at 0.557.
The same measure for GAGACCGCAACTGAAAAGTTGTTATCACTTGTAGTAAGACACTATGGATGGGTTGAAGTTCTGCACGTAGAAGCAAAAGGC: 0.805.
Take GAGACCGCAACTGAAAAGTTGTTATCACTTGTTGTAAAACACTTTGGATGGGTTGAAGTTCTGCACGTAGAAGCAAAAGGC: the fraction ligated is 0.857.
Consider GAGACCGCAACTGAAAAGTTGTTATCACTAGTCGTAACACACTTTGGATGGGTTGAAGTTCTGCACGTAGAAGCAAAAGGC, for which the fraction ligated stood at 0.795.
With GAGACCGCAACTGAAAAGTTGTTATCACTTATCGTAAGACACTTTGTATGGGTTGAAGTTCTGCACGTAGAAGCAAAAGGC, the fraction ligated came out at 0.0708.
With GAGACCGCAACTGAAAAGTTGTTATCGCTTGTCGTAAGACACTTTAGATGGGTTGAAGTTCTGCACGTAGAAGCAAAAGGC, the fraction ligated is 0.83.
For the variant GAGACCGCAACTGAAAAGTTGTTATTACTTGTAGTAAGACACTTTGGATGGGTTGAAGTTCTGCACGTAGAAGCAAAAGGC, the fraction ligated was 0.798.
In the case of GAGACCGCAACTGAAAAGTTGTTATCACTTGTCGTAGGACACCTTGGATGGGTTGAAGTTCTGCACGTAGAAGCAAAAGGC, the fraction ligated was determined as 0.853.
The same measure for GAGACCGCAACTGAAAAGTTGTTATCACTTGTCGTAGGACACATTGGATGGGTTGAAGTTCTGCACGTAGAAGCAAAAGGC: 0.867; for GAGACCGCAACTGAAAAGTTGTTATGACTTGTCGTAAGACACTTTGGAGGGGTTGAAGTTCTGCACGTAGAAGCAAAAGGC: 0.371.
To GAGACCGCAACTGAAAAGTTGTAATCACTTGTAGTAAGACACTTTGGATGGGTTGAAGTTCTGCACGTAGAAGCAAAAGGC belongs 0.855; to GAGACCGCAACTGAAAAGTTGTTATCACTTGTTGCAAGACACTTTGGATGGGTTGAAGTTCTGCACGTAGAAGCAAAAGGC, 0.869; to GAGACCGCAACTGAAAAGTTGTTATCCCTTGTCGTAAGAGACTTTGGATGGGTTGAAGTTCTGCACGTAGAAGCAAAAGGC, 0.783.
The same measure for GAGACCGCAACTGAAAAGTTGTTATCACTTTTCGTGAGACACTTTGGATGGGTTGAAGTTCTGCACGTAGAAGCAAAAGGC: 0.798; for GAGACCGCAACTGAAAAGTTGTTATCACTTGTCGTAAGACACTTTGGATCGGTTGATGTTCTGCACGTAGAAGCAAAAGGC: 0.0648; for GAGACCGCAACTGAAAAGTTGTTATCACTAGTCGTAAGTCACTTTGGATGGGTTGAAGTTCTGCACGTAGAAGCAAAAGGC: 0.81.
As for GAGACCGCAACTGAAAAGTTGTTAACACTTGTCGTAAAACACTTTGGATGGGTTGAAGTTCTGCACGTAGAAGCAAAAGGC, the fraction ligated was 0.353.
